Assay results taken from paper PMC6307458, “Inhibition of Inflammatory Changes in Human Myometrial Cells by Cell Penetrating Peptide and Small Molecule Inhibitors of NFκB” (Frontiers in Immunology, 2018).

System: human myometrial cells
Test: Live cell confocal microscopy, delivery of rhodamine cargo
Conditions: live cell spinning disk confocal microscopy; primary human myometrial cells; 1, 3 and 10 μM; 60 min; 37°C, 5% CO2; serum-reduced media (0.1% FCS); 3 independent experiments
Procedure: Cells were washed in phosphate buffered saline and changed to serum-reduced media (0.1%FCS) for 18–24 h ([39]).
Initial images were collected to assess baseline cellular auto-fluorescence prior to the addition of varying concentrations of fluorophore-CPP/fluorophore- CPP-Cargo/fluorophore-control peptide combinations (see Table 1) that were ready made up in serum-reduced cell media. Further images were captured 60 min following application.
To make a thorough assessment of fluorescent uptake throughout whole cells, all images were captured as a series of slices in the Z plane (range 3–10 slices per area selected, each slice 0.54 μm apart) with the 40x objective using live cell spinning disk confocal microscopy (Andor Revolution XD coupled to an Olympus IX-81 inverted microscope; Andor Belfast UK). All images were digitally recorded with IQ2 software (Andor, Belfast, UK).

Substance | delivery of rhodamine fluorophore internal to the cells
Rhodamine–RQIKIWFQNRRMKWKK [Penetratin, conjugated to rhodamine] | able to enter uterine cells
Rhodamine-RQIKIWFQNRRMKW-Aca- TALDWSWLQTE [rhodamine Pen(43-56)–NBD] | demonstrated ability to enter myometrial cells
